The source of these data is article PMC10246912.

For the test, the target named is human angiotensin-converting enzyme 2 receptor (hACE2) (human) (UniProt Q9BYF1). Nature of the test: SPR. A general note: SPR reads the build-up and loss of mass on a sensor chip optically.

Consider “S-2P (prefusion-stabilised SARS-CoV-2 spike with K986P and V987P) (domain or fragment)”, for which the Kd (usually the constant that tells how readily two partners part at equilibrium) was 200 pM.
